Results taken from publication PMC7060329, “Pathway-specific enzymes from bamboo and crop leaves biosynthesize anti-nociceptive C-glycosylated flavones” (Communications Biology, 2020).

T1: SbF2H (CYP93G3; SbCYP93G3) (Sorghum bicolor, UniProt C5X6I4)
T1 construct: gene SORBI_3002G000400; N-terminal transmembrane region cut (borders not in text) and replaced with 2B1dH tag; codon-optimized; in E. coli with AtCPR2
T1 sequence (C5X6I4 42-541 limits assumed): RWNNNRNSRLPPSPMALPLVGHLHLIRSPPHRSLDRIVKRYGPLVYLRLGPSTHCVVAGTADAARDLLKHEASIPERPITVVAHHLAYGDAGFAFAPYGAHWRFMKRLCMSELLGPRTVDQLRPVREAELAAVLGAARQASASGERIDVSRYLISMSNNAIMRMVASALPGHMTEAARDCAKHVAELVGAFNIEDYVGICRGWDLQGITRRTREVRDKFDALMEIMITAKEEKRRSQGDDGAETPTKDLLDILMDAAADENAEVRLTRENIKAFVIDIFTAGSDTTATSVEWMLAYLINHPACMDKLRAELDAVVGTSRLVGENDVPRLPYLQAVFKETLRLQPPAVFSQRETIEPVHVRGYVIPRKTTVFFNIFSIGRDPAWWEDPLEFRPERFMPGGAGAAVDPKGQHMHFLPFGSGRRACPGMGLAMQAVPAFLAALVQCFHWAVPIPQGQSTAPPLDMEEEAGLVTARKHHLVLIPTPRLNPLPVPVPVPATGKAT


What was measured:
[1] = molecular target: T1, SbF2H (CYP93G3; SbCYP93G3); test: E. coli whole-cell conversion, LC-MS of downstream vitexin/isovitexin; assay type: cell-based; conditions: coexpressed AtCPR2 and PhUGT708A43; naringenin made in vivo, 22 °C
[2] = substrate: O=C1CC(O)(c2ccc(O)cc2)Oc2cc(O)cc(O)c21; test: HPLC of C-glucoside product, Michaelis-Menten fit; assay type: biochemical, Phyllostachys edulis; conditions: 400 μM UDP-glucose, 100 mM NaCl, 20 mM Tris-HCl pH 8.0, 37 °C, 20 min
[3] = substrate: O=C(CCc1ccc(O)cc1)c1c(O)cc(O)cc1O; test: HPLC of C-glucoside product, Michaelis-Menten fit; assay type: biochemical, Phyllostachys edulis; conditions: 400 μM UDP-glucose, 100 mM NaCl, 20 mM Tris-HCl pH 8.0, 37 °C, 20 min

| Molecule | E. coli whole-cell conversion, LC-MS of downstream vitexin/isovitexin [1] | Km [2] | Km [3] |
| --- | --- | --- | --- |
| O=C1C[C@@H](c2ccc(O)cc2)Oc2cc(O)cc(O)c21 [Nar, naringenin] | truncated ZmF2H/AtCPR2 (sCZ2) and truncated SbF2H/AtCPR2 (sCZ29) |  |  |
| PhUGT708A43 (PhCGT1) (Phyllostachys edulis) (protein, full-length ORF, pET28a (pCZ86), recombinant from E. coli, purified) MPTSGGRTGDRPHVILLPSAGMGHLVPFSRLAVALSSGHGCDVSVVAVLPTVSAAESRHLQGLLDASPAVRRLDLHLAPFDESEFPGADPFFLRFEAMRRSAPLLGPLLADTGASALVTDIALASVVIPVAKEIHLPCYVLFTASAAMLSFCAYFPTYLDTNAGRVVGDVDIPGVYRIPKASIPQALHDPNHLFTRQFVANGQDLAKADGVLVNTFDALELEAVTALRQGSVAAGFPPVFSVGPLVTVNLPAGEAAKESGNDYMYWLDAQPAQSVVYVSFGSRKAISRDQVRELAIGLEASGQPFLWVVKSTVVDRDDSAELSELLGEGFLERVQGQGFVTKAWVEQEEVLKHESIGLFISHCGWNSVTEAAASGVPVLAWPRFGDQRVNAGVVARGGLGVWVERWSWEGEEDVVSGEEIAEKVKAVMADETVRKKAASVGEAAVKEFADGGTSYRSLTEFVRRCRDLAVLD |  | 1.75 ± 0.66 µM | 15.83 ± 6.98 µM |
